The results in this text go back to patent publication US20250312444A1 (BEIJING TUO JIE BIOPHARMACEUTICAL, published 2025).

Positions count from the first letter of the chain named.

One test deals with T1, human RXFP1 receptor (human, UniProt Q9HBX9 1-757).
T1 sequence (looked up): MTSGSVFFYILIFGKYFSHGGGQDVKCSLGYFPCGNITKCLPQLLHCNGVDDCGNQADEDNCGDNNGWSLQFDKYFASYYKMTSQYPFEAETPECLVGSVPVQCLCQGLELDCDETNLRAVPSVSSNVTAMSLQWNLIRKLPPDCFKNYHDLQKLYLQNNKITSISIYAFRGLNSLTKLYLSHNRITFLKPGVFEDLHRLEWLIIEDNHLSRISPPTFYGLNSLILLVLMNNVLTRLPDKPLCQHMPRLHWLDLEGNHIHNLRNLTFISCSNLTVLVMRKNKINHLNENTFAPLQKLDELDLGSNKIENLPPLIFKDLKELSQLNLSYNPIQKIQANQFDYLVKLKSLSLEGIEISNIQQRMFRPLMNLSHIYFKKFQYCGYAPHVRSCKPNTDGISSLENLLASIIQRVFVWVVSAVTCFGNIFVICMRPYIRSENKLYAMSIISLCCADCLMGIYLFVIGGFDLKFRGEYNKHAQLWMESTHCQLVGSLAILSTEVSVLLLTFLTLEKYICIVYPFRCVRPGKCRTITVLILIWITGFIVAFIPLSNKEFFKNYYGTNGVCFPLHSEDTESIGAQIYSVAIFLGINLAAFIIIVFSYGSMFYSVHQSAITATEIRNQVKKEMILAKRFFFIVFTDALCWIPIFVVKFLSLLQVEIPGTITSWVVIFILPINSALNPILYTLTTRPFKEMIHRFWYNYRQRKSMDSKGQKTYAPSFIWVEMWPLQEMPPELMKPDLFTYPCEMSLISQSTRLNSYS
The test can be described thus: cell-based or functional assay.

Test [1] concerns the target human serum albumin (HSA) (human). In words: SPR Biacore T200, fusion protein captured by anti-VHH antibody, albumin as analyte. Here is the method: (§1) Coupling of an anti-VHH antibody (MonoRab™ Rabbit Anti-Camelid VHH Cocktail, Genescript, Cat No. A02014) to an S series CM5 sensor chip (GE, Cat No. 29-1049-88) was performed using an amino coupling kit (GE, Cat No. BR-1000-50). The antibody was diluted to 10 μg/mL with 10 mM sodium acetate (pH 4.5) (GE, Cat No. BR-1003-50). After the CM5 chip was activated with EDC/NHS, the diluted anti-VHH antibody was flowed over the chip to reach a surface response value of about 5000 RU, and then the chip was blocked with ethanolamine for later use.
(§2) The albumin from each species was serially diluted in a gradient with 1XHBS-EP (10 mM HEPES, pH 7.4, 150 mM NaCl, 3 mM EDTA, 0.05% Surfactant P20). The test fusion protein molecule was captured using the anti-VHH antibody-coupled chip, with a response value of about 30 RU. Then, different concentrations of serum albumin were flowed over the surface of the chip for 3 min at a flow rate of 50 μL/min, with a dissociation time of 1-10 min (the dissociation time varied depending on the species of albumin). After the end of each cycle, the chip was regenerated using 10 mM glycine-hydrochloric acid (pH 1.5) (GE, Cat No. BR-1003-54). The reaction signals were detected in real-time using Biacore T200 (GE) to obtain the association and dissociation curves, and the data obtained were fitted with a Langmuir 1:1 binding model using the BIAevaluation version 4.1 software at appropriate concentration points to obtain the affinity values.

The target of test [2] is T2, rat serum albumin (rat).
T2 chain: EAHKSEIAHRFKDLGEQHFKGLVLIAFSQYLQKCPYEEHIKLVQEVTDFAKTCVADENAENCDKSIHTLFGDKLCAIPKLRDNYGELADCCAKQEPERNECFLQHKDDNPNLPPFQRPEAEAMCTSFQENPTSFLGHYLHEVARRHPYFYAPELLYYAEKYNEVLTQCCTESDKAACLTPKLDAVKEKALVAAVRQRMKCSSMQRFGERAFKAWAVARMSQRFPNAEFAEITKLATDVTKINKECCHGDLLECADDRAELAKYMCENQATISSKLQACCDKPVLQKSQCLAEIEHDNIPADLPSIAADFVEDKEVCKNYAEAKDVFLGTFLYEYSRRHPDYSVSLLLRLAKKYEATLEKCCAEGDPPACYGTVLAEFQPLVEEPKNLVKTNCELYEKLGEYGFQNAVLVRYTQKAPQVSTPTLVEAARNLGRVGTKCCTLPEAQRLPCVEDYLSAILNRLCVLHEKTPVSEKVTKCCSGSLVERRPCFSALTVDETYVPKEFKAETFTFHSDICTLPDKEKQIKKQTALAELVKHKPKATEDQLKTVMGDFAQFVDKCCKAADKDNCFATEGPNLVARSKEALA
The test is described as above. As to the method:
as §1, §2

The target in test [3] is human serum albumin (HSA) (human). In words: phage supernatant ELISA, albumin coated.
Test [4] concerns the target T3, monkey serum albumin (CySA) (monkey).
T3 chain: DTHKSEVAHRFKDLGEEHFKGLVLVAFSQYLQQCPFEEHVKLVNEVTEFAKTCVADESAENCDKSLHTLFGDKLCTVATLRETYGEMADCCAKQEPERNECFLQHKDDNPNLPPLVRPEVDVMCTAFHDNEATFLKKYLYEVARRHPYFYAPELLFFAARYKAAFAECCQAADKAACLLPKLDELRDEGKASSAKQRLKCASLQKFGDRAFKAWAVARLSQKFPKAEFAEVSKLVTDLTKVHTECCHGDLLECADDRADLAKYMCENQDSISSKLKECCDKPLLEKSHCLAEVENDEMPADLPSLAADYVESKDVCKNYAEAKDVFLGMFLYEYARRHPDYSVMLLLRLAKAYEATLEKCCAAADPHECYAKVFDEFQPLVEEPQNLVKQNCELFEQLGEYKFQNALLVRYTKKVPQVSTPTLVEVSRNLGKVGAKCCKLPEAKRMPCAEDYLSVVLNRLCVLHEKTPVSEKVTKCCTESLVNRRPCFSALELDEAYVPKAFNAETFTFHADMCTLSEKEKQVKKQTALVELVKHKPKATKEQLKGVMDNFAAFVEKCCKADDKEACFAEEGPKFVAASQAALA
The test can be described thus: phage supernatant ELISA, albumin coated.

Test [5] has as its target mouse serum albumin (mSA) (mouse). The test can be described thus: phage supernatant ELISA, albumin coated.
The target of test [6] is human serum albumin (HSA) (human). The test can be described thus: SPR Biacore T200, albumin amine-coupled, fusion protein as analyte. Here is the method: (§3) Coupling of serum albumins from different species to an S series CM5 sensor chip (GE, Cat. 29-1049-88) was performed using an amino coupling kit (GE, Cat No. BR-1000-50). The albumin from each species was diluted to 2 μg/mL. After the CM5 chip was activated with EDC/NHS, the diluted albumin was flowed over the chip to reach a surface response value of about 200 (180 to 230) RU, and then the chip was blocked with ethanolamine. The blank control channel also needed to be activated with EDC/NHS and blocked with ethanolamine. […] The samples of 0051 and 0054 at different concentrations were separately flowed through the albumin-coupled and blank channels for 3 min at a flow rate of 50 μL/min, with a dissociation time of 4 min. After the end of each cycle, the chip was regenerated using 10 mM glycine-hydrochloric acid (pH 1.5) (GE, Cat. #BR-1003-54). The reaction signals were detected in real-time using Biacore T200 (GE) to obtain the association and dissociation curves, and the data obtained were fitted with a Langmuir 1:1 binding model using the BIAevaluation version 4.1 software at appropriate concentration points to obtain the affinity values.

For test [7], the target named is mouse serum albumin (mSA) (mouse). The description is as above. As to the method:
as §3

Test [8] has as its target T2, rat serum albumin. The description is as above. As to the method: as §3

B1: 0065 (other)
chain: EVQLLESGGGLVQPGGSLRLSCAASGFTFLTSCMGWFRQAPGKEREGVSSIYTVGGSTFYTNSVKGRFTISRDNSKNTLYLQMNSLRPEDTAVYYCAAGSPARCRLRDPTTFDYWGQGTLVTVSSGGGGQGGGGQGGGGQGGGGQGGGGQSWMEEVIKLCGRELVRAQIAICGMSTWSGGGSGGSGGGQLYSALANKCCHVGCTKRSLARFC
notes: Single-chain fusion: anti-HSA VHH, linker, relaxin-2 B chain, linker, relaxin-2 A chain; also called fusion protein 0065
In the case of B1, in the test with human RXFP1 receptor, the “EC50 (nM), cAMP production in THP1 cells, 1% HSA” value (from here on “EC50 (nM) … 1% HSA”) is 23 nM and the “EC50 (nM), cAMP production in THP1 cells, without HSA” value (shortened to “EC50 (nM) … without HSA”) was 2.08 nM. Besides, in [1], binding was characterised by a dissociation constant (Kd) of 9.68 nM, the koff amounted to 0.000797 s⁻¹ and the kon stood at 82300 M⁻¹ s⁻¹. Also, in the test with rat serum albumin [2], the Kd worked out at 159 nM, the koff stood at 0.00567 s⁻¹ and the kon stood at 35700 M⁻¹ s⁻¹.

B2: 0064 (other)
chain: B1 chain with F27N, F29Y, R87Q
notes: Single-chain fusion: anti-HSA VHH, linker, relaxin-2 B chain, linker, relaxin-2 A chain; also called fusion protein 0064
B2: in the test with human RXFP1 receptor, the “EC50 (nM) … 1% HSA” value was found to be 19.8 nM and the “EC50 (nM) … without HSA” value was 8.5 nM. Moreover, in [1], the Kd is 5.59 nM, the koff amounted to 0.00086 s⁻¹ and the kon was found to be 154000 M⁻¹ s⁻¹. Further, in the test with rat serum albumin [2], the Kd was 58.5 nM, the koff was 0.00579 s⁻¹ and the kon is 98900 M⁻¹ s⁻¹.

B3: #9aHSA (VHH)
VHH: DVQLVESGGGSVQAGGSLRLSCAAAEYTYLNSCLGWFRQAPGKEREGVATIYMVGGSTFYADSVKGRFTISRDNAKNTVYLMMNSLKPEDTAMYYCAAGSPARCLRRDPTTFNYWGQGTQVTVSS
notes: also called clone #9
Take B3: the OD450 in [3] was found to be 1.52 OD450; in test [4], 1.82 OD450; in [5], 1.09 OD450.

B4: #7aHSA (VHH)
VHH: HVQLVESGGGSVQAGGSLRVSCVASGNTYLTSCMGWFRQAPGKEREGVASIYTVGGSTFYTNSVKGRFTISRDNAKNTVYLQMNSLQPEDTAMYYCAAGSPARCRLRDPTTFDYWGQGTQVTVSS
notes: also called clone #7
With B4, the OD450 turned out to be 1.69 OD450 in [3], 1.75 OD450 in [4] and 1.12 OD450 in test [5].

B5: 0052 (other)
chain: EVQLLESGGGLVQPGGSLRLSCAASGFTFLTSCMGWFRQAPGKEREGVSSIYTVGGSTFYTNSVKGRFTISRDNSKNTLYLQMNSLRAEDTAVYYCAAGSPARCRLRDPTTFDYWGQGTLVTVSSPGPAPGPAPGPAPGPAPGPAPGPAPGPAPGPASWMEEVIKLCGRELVRAQIAICGMSTWSGGGSGGSGGGQLYSALANKCCHVGCTKRSLARFC
notes: Single-chain fusion: anti-HSA VHH, linker, relaxin-2 B chain, linker, relaxin-2 A chain; also called fusion protein 0052
Regarding B5, in the test with human RXFP1 receptor, the “EC50 (nM) … 1% HSA” value came to 21.5 nM and the “EC50 (nM) … without HSA” value is 5.22 nM. Moreover, in test [1], the Kd stood at 9.65 nM, the off-rate (koff) was determined as 0.000867 s⁻¹ and the kon is 89900 M⁻¹ s⁻¹. In the test with rat serum albumin [2], this molecule showed a Kd of 145 nM, a koff of 0.00599 s⁻¹ and a kon of 41300 M⁻¹ s⁻¹.

B6: 0054 (other)
chain: EVQLLESGGGLVQPGGSLRLSCAASGRYIDETAVAWFRQAPGKGREFVAGIGGGVDITYYADSVKGRFTISRDNSKNTLYLQMNSLRPEDTAVYYCAARPGRPLITSKVADLYPYWGQGTLVTVSSGGGGQGGGGQGGGGQGGGGQGGGGQSWMEEVIKLCGRELVRAQIAICGMSTWSGGGSGGSGGGQLYSALANKCCHVGCTKRSLARFC
notes: also called positive control 0054; positive control molecule 0054
Regarding B6, the Kd is 0.099 nM in test [6]; 1.37 nM in test [7]; 1.06 nM in the test with rat serum albumin [8]; 15.8 nM in test [1]; 183 nM with rat serum albumin [2]. Moreover, the koff in [6] is 0.000181 s⁻¹; in test [7], 0.0027 s⁻¹; in the test with rat serum albumin [8] it was 0.00246 s⁻¹; in [1], 0.000563 s⁻¹; with rat serum albumin [2], 0.0113 s⁻¹. For the same molecule, the kon in test [6] amounted to 1.83e+06 M⁻¹ s⁻¹; in [7], 1.97e+06 M⁻¹ s⁻¹; in the test with rat serum albumin [8], 2.31e+06 M⁻¹ s⁻¹; in test [1], 35700 M⁻¹ s⁻¹; with rat serum albumin [2], 61500 M⁻¹ s⁻¹.
